{"source": "paper PMC6892150", "about": "“Dimerization of MORC2 through its C-terminal coiled-coil domain enhances chromatin dynamics and promotes DNA repair” (Cell Communication and Signaling : CCS, 2019)", "proteins": {"B1": {"name": "microrchidia family CW-type zinc finger protein 2 (MORC2), full length, Flag- or HA-tagged (natural protein, human, UniProt Q9Y6X9 1-1032, looked up)", "chain": "MAFTNYSSLNRAQLTFEYLHTNSTTHEFLFGALAELVDNARDADATRIDIYAERREDLRGGFMLCFLDDGAGMDPSDAASVIQFGKSAKRTPESTQIGQYGNGLKSGSMRIGKDFILFTKKEDTMTCLFLSRTFHEEEGIDEVIVPLPTWNARTREPVTDNVEKFAIETELIYKYSPFRTEEEVMTQFMKIPGDSGTLVIIFNLKLMDNGEPELDIISNPRDIQMAETSPEGTKPERRSFRAYAAVLYIDPRMRIFIHGHKVQTKRLSCCLYKPRMYKYTSSRFKTRAEQEVKKAEHVARIAEEKAREAESKARTLEVRLGGDLTRDSRVMLRQVQNRAITLRREADVKKRIKEAKQRALKEPKELNFVFGVNIEHRDLDGMFIYNCSRLIKMYEKVGPQLEGGMACGGVVGVVDVPYLVLEPTHNKQDFADAKEYRHLLRAMGEHLAQYWKDIAIAQRGIIKFWDEFGYLSANWNQPPSSELRYKRRRAMEIPTTIQCDLCLKWRTLPFQLSSVEKDYPDTWVCSMNPDPEQDRCEASEQKQKVPLGTFRKDMKTQEEKQKQLTEKIRQQQEKLEALQKTTPIRSQADLKKLPLEVTTRPSTEEPVRRPQRPRSPPLPAVIRNAPSRPPSLPTPRPASQPRKAPVISSTPKLPALAAREEASTSRLLQPPEAPRKPANTLVKTASRPAPLVQQLSPSLLPNSKSPREVPSPKVIKTPVVKKTESPIKLSPATPSRKRSVAVSDEEEVEEEAERRKERCKRGRFVVKEEKKDSNELSDSAGEEDSADLKRAQKDKGLHVEVRVNREWYTGRVTAVEVGKHVVRWKVKFDYVPTDTTPRDRWVEKGSEDVRLMKPPSPEHQSLDTQQEGGEEEVGPVAQQAIAVAEPSTSECLRIEPDTTALSTNHETIDLLVQILRNCLRYFLPPSFPISKKQLSAMNSDELISFPLKEYFKQYEVGLQNLCNSYQSRADSRAKASEESLRTSERKLRETEEKLQKLRTNIVALLQKVQEDIDINTDDELDAYIEDLITKGD", "notes": "MORC2, human, full length (1032 residues by the printed numbering 950-1032 for the C-terminus); Flag-MORC2 and HA-MORC2 are two differently tagged copies of the same full-length protein; each chain carries one tag only; Written as one molecule because they are co-precipitated with each other to show self-association; Flag-MORC2 was the copy purified for cross-linking; HA-MORC2 was the copy …"}}, "target": "the molecule itself", "assay": "cross-linking; Flag-MORC2 purified from HEK293T, chemical cross-linking, immunoblotting"}
{"protein": "B1", "values": [{"measurement": "stoichiometry N", "result": 2}]}
